# Read-outs that look alike come from different tables or passages of the source.
# T1: Rv1019 (TetR family regulator) (Mycobacterium tuberculosis H37Rv) (UniProt P96381)
# T1 sequence: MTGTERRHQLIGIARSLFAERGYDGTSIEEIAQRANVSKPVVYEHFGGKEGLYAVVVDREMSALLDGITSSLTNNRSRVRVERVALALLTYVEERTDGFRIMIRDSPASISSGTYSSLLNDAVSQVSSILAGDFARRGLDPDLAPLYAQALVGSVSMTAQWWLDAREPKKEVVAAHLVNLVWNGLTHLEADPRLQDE
# T2: Rv1019 (TetR family regulator) (Mycobacterium tuberculosis H37Rv, UniProt P96381 1-197)
# T2 sequence: T1 sequence
# B1: Rv1019 18 bp inverted repeat (Palindrome Oligo S1/S2) (dsDNA)
# DNA 1: TGACTTTAGACGGTGTCAACGCCGTCAGCACAGT
# DNA 2: ACTGTGCTGACGGCGTTGACACCGTCTAAAGTCA
# B2: M. smegmatis cognate site (MS Pal S1/S2) (dsDNA)
# DNA 1: GGCTTGACGTGCGCGAACCGTCGAAAG
# DNA 2: CTTTCGACGGTTCGCGCACGTCAAGCC
# How the values were obtained:
# [1] = molecular target: Rv1019, putative TetR family transcriptional regulator of Mycobacterium tuberculosis H37Rv (Mycobacterium tuberculosis H37Rv); assay: native gel or EMSA
# [2] = molecular target: Rv1019, putative TetR family transcriptional regulator of Mycobacterium tuberculosis H37Rv (Mycobacterium tuberculosis H37Rv); assay: cross-linking
# [3] = molecular target: T1, Rv1019 (TetR family regulator) (Mycobacterium tuberculosis H37Rv); assay: EMSA
# [4] = molecular target: T2, Rv1019 (TetR family regulator); assay: EMSA
# [5] = molecular target: T2, Rv1019 (TetR family regulator); assay: EMSA; remark: listed apart in the source
molecule,measurement,setting,value
"Rv1019, putative TetR family transcriptional regulator of Mycobacterium tuberculosis H37Rv (natural protein)",stoichiometry N,[1],2
same,stoichiometry N,[2],2
"CCTGGCGCGCGTCACCCGCGTCGGGTTTTCCGGCGCCTTATCCGGCCCTTTATCCGGTCCGGCCACATCAACAAGGGTATCGGTTTGCGTGGGGCCGGTGGGTAGACGGCGACAGCGTTGACTGTGCTGACGGCGTTGACACCGTCTAAAGTCACATCGATGTGCAATCCGTCGTGGTGTAATCGGCAGCACCTCTGATTTTGGTTCAGATAGTTCAGGTTCGAGTCCTGGCGACGGAGCTTCAAGGAGGGTTGATGACGTTTCCTGGTGACACCGCGGTCCTGGTCCTAGCGGCCGGGC (double strand) [Fragment I, Rv1019 upstream -300 to -1]",binding,[3],binds
B1,binding result,[4],binds
B2,binding result,[5],binds

# From paper doi:10.1101/2020.02.10.941963
